Assay results published in US20260258115A1.

How the values were obtained:
[1] = molecular target: RSV prefusion F (preF), DS-Cav1 (Respiratory Syncytial Virus); test: BLI, IgG on anti-human IgG sensor, 100 nM antigen
[2] = molecular target: RSV postfusion F (postF), F deltaFP (Respiratory Syncytial Virus); test: BLI, IgG on anti-human IgG sensor, 100 nM antigen
[3] = molecular target: Respiratory Syncytial Virus fusion glycoprotein (RSV F) on RSV-A2 virus (Respiratory Syncytial Virus subtype A (RSV-A2)); test: cell-based or functional assay

Binder | Kd [1] [pM] | Kd [2] [pM] | Neutralization IC50 (RSV subtype A) [3] [µg/mL]
ADI-41182 (antibody, V domains shown) VH: QVQLVQSGAEVKKPGESLKISCQGSGYSFTSYWIGWVRQMPGKDLEWMGIIYPSDSDTRYSPSFQGQVTISVDKSINTAYLQWTSLKASDTAMYYCARCDGAVYWYFDLWGRGTLVTVSS VL: EIVLTQSPATLSVSPGERVTLSCRASRSVSSHLAWYQQKPGQAPRLLMYGASTRATGIPARFSGSGSGTEFTLTISSLQSEDFGVYYCQQYNNWPPALTFGGGTKLEIK | 2550 | 462 | > 25
ADI-41190 (antibody, V domains shown) VH: QVQLVQSGAEVKKPGASVKVSCKAFGYTFRSYDMQWVRQAPGQRLEWMGWINAVNGDTKYSQKFQGRVTITRDTSATTVYMELSSLRSEDTAVYYCARWGRFWNSRSLDYYAMDVWGQGTTVTVSS VL: DIVMTQSPGTLSLSPGERATLSCRASQSISSSYLVWYQHKPGQAPRLLIYGASTRATDIPDRFSGSGSGTDFTLTISRLEPEDFAVYYCQQYGSSPLTFGQGTRLEIK | 2290 | 971 | > 25
ADI-41212 (antibody, V domains shown) VH: EVQLLESGAEVKKPGASVKVSCKASGYTFTDYYIHWVRQAPGQGLEWMGRINPKNGDAIYAQNFQGRVTMTRDTSISTAYMEVSRLTSDDTAVYYCARDQMWLVLDYWGQGTLVTVSS VL: QSALTQPASVSGSPGQSITISCTGTSSDVGGYDYVSWYQQHPGKAPKLMIHDVTNRPSGISHRFSGSKSGNTASLTISGLQAGDEADYYCSSYTRSNTKVFGTGTKVTVL | 3180 | 400 | > 25
ADI-41200 (antibody, V domains shown) VH: EVQLLESGGGLVKPGGSLRLSCAASGLTFSDHDMSWVRQAPGKGLEWVSGIGGSGSNTYYAGSVKGRFTISRDNSKNTLYLQMDSLRVEDTAVYYCAKDPYGDYRDYYGMDVWGQGTTVTVSS VL: DIVLTQTPFSLPVTPGEPASISCRSSQSLLKSNGYNYLDWFLQKPGQSPQLLIYLGSNRASGVPDRFSGSGSGTDFTLKISRVEAEDVGVYYCMQTLQALYTFGQGTKVEIK | 334 | 318 | > 25
ADI-41189 (antibody, V domains shown) VH: QVQLVESGGGLVKPGGSLRLSCAASGFTFSSYSMNWVRQAPGKGLEWVSSMSSSSGYIDYADSVKGRFTISRDNAKNSLYLQMNSLRVEDTAVYYCARRNAVVVPSLMVVADYYYGMDVWGQGTTVTVSS VL: QSVLTQPPSVSGAPGQRVTISCTGSSSNIGAGYDVHWYQQLPGTAPKLLIYGNSNRPSGVPDRFSGSKSGTSASLAITGLQAEDEADYYCQSYDTSLSGPGYVFGTGTKLTVL | 2860 | 608 | > 25
ADI-41207 (antibody, V domains shown) VH: QVQLVQSGPALVKPTQTLTLTCTFSGFSLSTKGMCVSWIRQPPGKALEWLALIDWDDDKFYSTSLKTRLTISKDTSKNQVVLTMTNMDPVDTATYYCARTLYFYGSGSLSDYCFDYWGQGTPVTVSS VL: QPVLTQPRSVSGSPGQSVTISCTGTSRDVGNYNFVSWYQQHPGKAPKLIIYDVTKRPSGVPDRFSGSKSGNTASLTISGLQAEDEADYYCCSYAGTYTWVFGGGTKVTVL | 2530 | 438 | > 25
ADI-41196 (antibody, V domains shown) VH: EVQLVESGGGLVQPGGSLRLSCIVSGFPFNTYAMSWVRQAPGKGLEWVSVVSASGGNTDYADSVKGRFTISRDNSKKTLYLQMNSLRAEDTAVYYCARTESNTLAPSWSGRYVTDWYFDLWGRGTLVTVSS VL: EIVMTQSPSSLSASVGDRVTITCRASQSISSFLNWYQQKPGKAPKLLISAASSLQSGVPSRFSGSGSGTDFTLTISSLQPEDFATYYCQQSYSIPTFGQGTRLEIK | 2920 | 595 | > 25
ADI-41197 (antibody, V domains shown) VH: QVQLVQSGAEVKKPGASVKVSCKASGYTFSGYYMHWVRQAPGQGLEWVGRINPKSGDTVYAQKFQGRVTMTRDTSISTAYMELSRLISDDTAKYYCARQEDHYYGSGNFYNSFDFWGQGTLVTVSS VL: ETTLTQSPSSLSASVGDRVTITCRASQSISSNLNWYQQKPGKAPKLLIYGASTLQSGVPSRFSGSGSGTDFTLTISSLQPEDLATYYCQQSYSNPGKTFGQGTKVDIK | 795 | 531 | 0.27
ADI-41184 (antibody, V domains shown) VH: EVQLLETGGGLVQPGGSLRLSCAASGFTFSSYDMNWVRQAPGKGLEWVSTISGSGGPTYYAGSVKGRFTISRDNSKNTLYLQMNSLRADDTAVYYCAKAQLYDTSGYYLYYFDYWGQGTLVTVSS VL: DIRMTQSPSSLSASVGDRVTITCRASQRITSYLNWYQQKPGKAPKLLIYAASSLQSGVPSRFSGSGSGTDFTLTISSLQPEDFATYFCQQSYSTSFTFGPGTKVDIK | 2850 | 532 | > 25
ADI-41185 (antibody, V domains shown) VH: QVQLQQWGAGLLKPSETLSLTCAVYGGSFSSYYYSWIRQPPGKGLEWIGEINQSGSTNYNPSLKSRVTISVDTSKNEFSLKLSSVTAADTAVYYCARIVREFNTRWYDYYYMDVWGKGTTVTVSS VL: DIRVTQSPATLSLSPGERATLSCRTSQSISSSYLAWYQQKFGQAPRLLIYGASSRATGIPDRFSGSGSGTDFTLTISRLEPEDFAVYYCQQYGISPPMYTFGQGTKVEIK | 3230 | 809 | > 25
ADI-41183 (antibody, V domains shown) VH: QVQLQESGAGLVKPSETLSLTCGVYGESFSGHSWSWIRQPPGRGLEWIGEINQSGTTKYNPSLRSRVTISVDRSKNEFSLKVSSVTAADTAVYFCARYFRSFYTIGPDYYYMDVWGKGTTVTVSS VL: EIVLTQSPSSLSASVGDRVTITCRASQNINNYLNWYQQKPGKAPRLLIYAASSLQSGVPSRFTGSGSGTDFTLTIRSLQSEDFATYYCQHSYSSSLLTFGGGTKVDIK | 4080 | 1000 | > 25
ADI-41201 (antibody, V domains shown) VH: EVQLLESGGGLVQPGGSLRLSCAASGFAFDIYSMNWVRQAPGKGLEWLSYISSRGETIYYADSVKGRFTISRDNARNSLYLQMNGLRDEDTATYYCYYYGSGISSHGGAFDYWGQGTLVTVSS VL: DIVMTQTPATLSLSPGERATLTSRASQSVSSFLAWYQQKPGQAPRLLIYDVSNRATGVPARFSGSGSGTDFTLTISSLEPEDIAVYYCQQRNTWPAITFGQGTKVEIK | 3820 | 637 | > 25
ADI-41181 (antibody, V domains shown) VH: QVQLVQSGAEVKKPGSSVKVSCKASGGSFSSYTLNWVRQAPGQGLEWMGRFVPIVGIANYAQKFQGRVTITADKSTSTVYMELSSLRSEDTAVYYCATAPTAYCSGDCYSLFDPWGQGTLVTVSS VL: QSVLIQPASVSGSPGQSITISCTGISSDVGSYNLVSWYQQHPGKAPKLIIYEVNKRPSGVSNRFSGSKSGNTASLTISGLQAEDEADYYCCSYAVSRTSLYVFGTGTKVTVL | 1950 | 936 | > 25
ADI-41205 (antibody, V domains shown) VH: QVQLQESGPGLVKPSGTLSLTCAVSGGSISSTNWWSWVRQPPGKGLEWIGEIYHSGSTNYNPSLKSRVTISVDKSNNQFSLNLSSVTAADTAVYYCARGVITYRGSWFLQYFDYWGQGTLVTVSS VL: DIRVTQSPDSLAVSLGERATINCKSSQSLFYSSNNQNYLAWYQQKPGQPPKLLIYWASTRQSGVPHRFSGSGSGTDFTLTISSLQAEDVAVYYCQQYYSSPLTFGGGTKVEIK | 1160 | 536 | > 25
ADI-41213 (antibody, V domains shown) VH: EVQLVESGGGLIQPGGSLRLSCAASGFTVSSNYMSWVRQAAGKGLEWVSLIYSGDSTYYADSVKGRFTISRDNSQNTLYLQMNSLRAEDTAVYYCARDASPNVGYYGMDVWGQGTTVTVSS VL: DIVLTQPPSVSVSPGQTASITCSGGKLGDTYACWYQQKPGQSPVLVIYQDSKRPSGIPERFSGSNSGNTATLTISGTQAMDEADYYCQAWDSSTARYVFGTGTKVTVL | 3470 | 577 | > 25
ADI-41186 (antibody, V domains shown) VH: EVQLLESGAEVKKPGESLKISCKGSGYSFSSYWIAWVRQMPGKGLEWMGIIYPSDSDTKYSPSFQGQVTISADKSISTAYLQWSSLKASDTAMYYCARQAGIQRPLDYWGQGTLVTVSS VL: EIVMTQSPATLSVSPGERATLSCRASQSVRSNLAWYQQKPGQAPRLLIYDASTRATGISARFSGSGSGTEFTLTISSLQSEDFAVYYCQQFHNWPPYTFGQGTKVEIK | 3010 | 703 | > 25
ADI-41179 (antibody, V domains shown) VH: QVQLVQSGAEVKKPGSSVKISCKASGGTFSSHPISWVRQAPGQGLEWMGRIVPIFGIANYAQKFQGRVTMIADKSTNTAYMELSNLRSEDTAVYYCANPVYDSSGFQWGQGTLVTVSS VL: QPVLTQPRSVSGSPGQSVTISCTGTSGDGGFYNYVSWYQQHPGKTPKLMIYDVDQRPSGVPDRFSGSKSGNTASLTISGLQAEDEADYYCCSYPGNPLYVFGTGTKVTVL | 948 | 342 | > 25
ADI-41202 (antibody, V domains shown) VH: QVQLVESGAEVKKPGSSVKISCKASGGTFSSHPISWVRQAPGQGLEWMGRIVPIFGIANYAQKFQGRVTMIADKSTNTAYMELSNLRSEDTAVYYCASPVYDSSGFQWGQGTLVTVSS VL: QSALIQPRSVSGSPGQSVTISCTGTSGDGGFYNYVSWYQQHPGKTPKLMIYDVDQRPSGVPDRFSGSKSGNTASLTISGLQAEDEADYYCCSYPGNPLYVFGTGTKLTVL | 1120 | 333 | > 25
ADI-41175 (antibody, V domains shown) VH: EVQLLESGGGVVQPGRSLRLSCATSGFTFSSYGMHWVRQAPGKGLEWVAVIYYEGSNKYYGDSVKGRFTISRDNSKSTLYLQMNRLRAEDTAVYYCARRPAGGFDYWGPGTLVTVSS VL: EIVMTQSPLSLPVTPGEPASISCRSSQNLLNSNGYNYLDWYLQKPGQSPQLLIYLGSNRASGVPDRFSGSGSGTDFTLKISRVEAEDVGVYYCMQALQTPYTFGQGTKLEIK | 4250 | 1070 | > 25
